In paper PMC8406262 one finds stoichiometry N data, which are given here for 3 substances.

Test [1] deals with BonA-C45, 45-aa C-terminally truncated BonA (Acinetobacter baumannii). In words: SEC-MALS; 100 μl at 1 to 5 mg/ml on Superdex 200 10/300 GL, 20 mM Tris-200 mM NaCl pH 7.9. In general terms: SEC sorts molecules by how far they enter the pores of the column.
Test [2] has as its target BonA, full-length soluble recombinant protein (mature, lacking its signal sequence) (Acinetobacter baumannii). Described as above.
For test [3] the target is unchanged. Description: AUC; sedimentation velocity, 0.25 to 2 mg/ml, 40,000 rpm, 20°C, 50 mM Tris-200 mM NaCl pH 7.9.
Test [4] addresses BonA, endogenous in A. baumannii ATCC 19606 membranes (Acinetobacter baumannii ATCC 19606 (endogenous)). Description: native gel or EMSA; 5 to 16% blue-native PAGE of 50 μg total membranes solubilized in detergent, Western blot with anti-BonA antiserum.

Consider “BonA-C45, 45-aa C-terminally truncated BonA (domain or fragment)”, for which the stoichiometry N (commonly a count of units in the complex or per binding partner) in test [1] is 10. On to “BonA, full-length soluble recombinant protein (mature, lacking its signal sequence) (natural protein)”, for which the stoichiometry N in test [2] and in test [3] was 10 in each case. Take “BonA, endogenous in A. baumannii ATCC 19606 membranes (natural protein)”: the stoichiometry N in test [4] came to 2.
